Consider 41 sequences from the nanobody polyreactivity screen of Harvey et al. (2022).

The data set is described as follows: yeast display, Sf9 membrane polyspecificity reagent, FACS + sequencing; frameworks hold sequencing errors. In short, it runs like this: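 Using colony PCR, genes from sorted yeast display clones were amplified, then sequenced on MiSeq at 2 × 250 and filtered by CDR length. The clones had been stained with 10% biotinylated, detergent-solubilized Sf9 membrane reagent for 1 hour at 4 °C and sorted by FACS into low and high (top ~1%) gates on anti-HA and streptavidin fluorescence. Polyreactivity labels come from the gate of origin.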
Take “QVQLESGGGLVQAGGRLRLSCAASGSIIDQYVMGWYRQAPGKERELVAAISRGGRTYYADSVKGRFTISRDNAKNTVYLQMNSLKPVDSSVYYCAARSDVRGFDYWGQGTQVTVSS”: the “polyreactivity (PSR sort gate)” value is given as “low polyreactivity”.
The same measure for “QVQLESGGGLVQAGGSLRLRCEASGITFQLYDMGWYRQAPGKERELVAAINSSGGSTYYADSVKGRFTISRDNAKNTVYLQMNSLKPEDTAVYYCNVGFAPVTNDQPVSTEYDYWGQGTQVTVSS”: “low polyreactivity”; for “QVQLESGGGLVQAGGSLRLSCAASGITFQLYDMGWYRQAPGKERELVAAINSSGGSTYYADSVKGRFTISRDNAKNTVYLQMNSLKPEDTAVYYCNVGFAPVTNDQPVSTEYDYWGQGTQVTVSS”: “low polyreactivity”.
The same measure for “QVQLEVSGGGLVQAGGSIRLSCAASGSTFGGNAMGWYRQAPRKERELVAAIDSGGSTYADSVKGRFTISRDNAKNTVYLQMNSLKPEDTAVYYCADWFSAYYSLYRHRGYWGQGTQVTVSS”: “low polyreactivity”; for “QVQLGESAGGLVQAGGSLRLSCAATGRTFRWYTMGWYRQAPGKERELVAGIRSTGGSTYYADSVKGRFTISRDNAKNTVYLQMNSLKPEDTEVYYCAIVTLTSRYASYYYWGQGTQVTVSS”: “high polyreactivity”; for “QVQLGESGEGLVQAGGSLRLSCAASGFTCGYYTMGLYRQAPGKERELVAAISSSGGRTYYADSVKGRFTISRDNAKNSVYFQMNSLKPEDTAVYYCNVYYISTDLYYWGQGTQVTVSS”: “high polyreactivity”.
With “QVQLGESGGGIVQAGGSLRLSCAASGRTLQQYVMGWYRQAPGKETELVAAITRGGRTNYADSVKGRFTISRDNAKNTVYLQRNSLKPEDTAVYYCNSRYPSRLVAWLDYWGQGTQVTVSS” the entry was “low polyreactivity”; with “QVQLGESGGGLVPAGGSLRLSCAASGGTFKTNAMGWYRQAPGKERELVAAITGSGTSTYYADSVKGRFTISRDNAKNTVYLHMNSLKPEDTAVYYCAADNLYHPGIGDDYWGQGTQVTVSS”, “low polyreactivity”; with “QVQLGESGGGLVQAGGCLRLSCAASGSIFAANAMGWYRQAPGKERELVAAINSGDSTNYADSVKGRFTISRDYAKKTVYLQMNSLKPEDTAVYYCARGLEERYDYWGQGTQVTVSS”, “low polyreactivity”.
Turning to “QVQLGESGGGLVQAGGSLRLICAASGSIFDQYAMGWSRPAPGKERELVAAIDTSGGSTYYADSVKGRFTISRDNAKYTVYLQMNSLKPEDTAVYYCAARGDGTFYEGYDYWGQGTQVTVSS”, the “polyreactivity (PSR sort gate)” value was “low polyreactivity”.
With “QVQLGESGGGLVQAGGSLRLSCAASGFIFFSNAMGWYRQAPGKERELVAAIRSGGSTNYADSVKGRFTISRDNAKNTVYLQMNSQKPEDTAVYYCNVLWLRSRRKYDYWGQGTQVTVSS” the entry was “low polyreactivity”; with “QVQLGESGGGLVQAGGSLRLSCAASGFTFRIYTMGWYRQAPGKERELVAAISSRGGSTYYADSVKGRFTISRDNAKNTVYLQMNSLKPEDTAVYYCAASGRVYSSGYDYWGQGTQVTVSS”, “high polyreactivity”; with “QVQLGESGGGLVQAGGSLRLSCAASGNTFYRNAMGWYRQAPGKERELVAAIDYSAGSTYYADCVKGRFTISRDNAKNTVYLQMHSLKPEDTADDYCAAVARTSRGRRYYSWGQGTQVTVSS”, “low polyreactivity”.
Regarding “QVQLGESGGGLVQAGGSLRLSCAASGRIFSAYAMGWSRQEPGKERELVAAITRSGGSTYYADSVKGRFTISRDNAKNTVYLQMNSLKPEDTAVYYCAAGYFVSDAWSWYHWVEHGYWGQGTQVTVSS”, the “polyreactivity (PSR sort gate)” value is given as “high polyreactivity”.
The same measure for “QVQLGESGGGLVQAGGSLRLSCAASGRISGYAMGWYRQAPGKERELVAAISKSAARTYYADSVKGRFTISRDNAKNTVYLQMNSLKPEDTAVYYCAADKPYRYDYWGQGTQVTLSS”: “high polyreactivity”.
With “QVQLGESGGGLVQAGGSLRLSCAASGRNFSTYTMGWYRQATWKERELVASISWSGVRTRYADSVKGRFTISRDNAKNTVYLQMNSLKPEDTAVYYCAAVVPYYYRSPSNHMGYWGQGTQVTVSS” the entry was “high polyreactivity”; with “QVQLGESGGGLVQAGGSLRLSCAASGRTFSYYAKGWNRPAPGKERELVGAISSTGGSTYYADSVKGRFTISRDNAKNTVYLQMNSLKPEDTAVYYCAARWYVLYYRGGYCGQGTQVTVSS”, “low polyreactivity”; with “QVQLGESGGGLVQAGGSLRLSCAASGRTFVSNAMGWYRPAPGNERELVAAITQSGGSTYADSVKGRFTISRDNAKNTVYLQMNSLKPEDTAVYYCNADHAFVGTYYERHDYWGQGTQVTVSS”, “low polyreactivity”.
The same measure for “QVQLGESGGGLVQAGGSLRLSCAASGSIFFLYAMGWYRQAPGKERELVAAISLSTGNTYYADSVKGRFTISRDNAKNTVYVQKNSLKPEDTAVYYCAAEDYWSAYYWGQGTQVTVSS”: “high polyreactivity”.
As to “QVQLGESGGGLVQAGGSLRLSCAASGSIFGSYAMGWYRQATGKERELVAAISYSGGTTYYADSVKGRFTNSRDNAKNTVYLQMNSLKPEDTAVYYCNAPVAYEREYEYWGQGTQVTVSS”, the “polyreactivity (PSR sort gate)” value is on record as “low polyreactivity”.
For “QVQLGESGGGLVQAGGSLRLSCAASGSIFVPYAMGWYRQAPGKERELVAVITSGGSTYYADSVKGRFTISRDNAKNTVYLQMNSLKPEDTAVYYCYADLYYVWSTLSQFDYWGQGTQVTVSS”, the “polyreactivity (PSR sort gate)” value is “low polyreactivity”.
As to “QVQLGESGGGLVQAGGSLRLSCAASGSIFYGYAMGWYRHAPGKERELVAAITRDGSTNYADSVKGRFTISLDNAKNTVYLQMNSLKPEDTAVYYCAADTRSRRLSLVRRDYWGQGTQVTVSS”, the “polyreactivity (PSR sort gate)” value is listed as “high polyreactivity”.
With “QVQLGESGGGLVQAGGSLRLSCAASGSIVDVYAMGWYRPAPGKERELVADITSGDITNYADSVKGRFTISRDNAKNTVYLQMNSLKPEDTAVYYCATPLKLAYSPKLDYWGQGTQLTVSS” the entry was “low polyreactivity”; with “QVQLGESGGGLVQAGGSLRLSCAASGSTFAYNERGWYSQAPGHERELVADIRSGGNTNYADSVKGRFTISRDNAKNTVYLQMPSLKPEDTAVYYCATDGYRIDVYHPDYRYDYWGQGTQVTVSS”, “low polyreactivity”; with “QVQLGESGGGLVQAGGSLRLSCAASGSTFIDYAMGWYRQAPGKERELVAAITNGGNTKYADSVKGRFTISRDNAKNTVYLQMNSLKPEDTAVYYCAKYYYTSIVGYDSWGQGTQVTVSS”, “low polyreactivity”.
For the sequence “QVQLGESGGGLVQAGGSLRLSCAASGSTFVVYAMGWYRQAPGKERELVAAITRGASTTYADSVKGRFTISRDNAKNTVYLQMNSLKPEDTAVYYCAAAVAYEYLQSAYTRYYYWGQGTQVTVSS”, the “polyreactivity (PSR sort gate)” value is reported as “high polyreactivity”.
With “QVQLGESGGGLVQAGGSLRLSCAASGSTFWPYAMGWYRQAPGKERELVATIRWSGGSTSYADSVKGRFTISRDNAKNTVYLQMNSVKPEDTAVFYCAARDFHYYRFKTYGYWGQGTQVTVSS” the entry was “high polyreactivity”.
With “QVQLGESGGGLVQAGGSLRLSCAASGSTFYVYAQGWYRPAPGKERELVAAISSSGARTYYADSVKGRFTISRDNAKNTVYLQMNCLKPDDTAVLYCAARRYYKFYYWGHGTQVTVSS” the entry was “high polyreactivity”; with “QVQLGESGGGLVQAGGSLRLSCAASGSTIRRYTMGWYRQAPGKERELDAAITGSGGSTYYADSVKGRFTISRDNAKNTVYLQMNSLKPEDPAVYYCAAPPWRRIVGGIYDYWGQGTQVTVSS”, “high polyreactivity”; with “QVQLGESGGGLVQAGGSLRLSCAASGYTFRPYAMGGYRQAPGKESELVAAISSGDSTNYADSVKGRFTISRDNAKNTVYLQMNSLNPEDTAVYYCAARRVGGGFYTWRNPAYEYWGQGTQVTVSS”, “high polyreactivity”.
The same measure for “QVQLGESGGGLVQAGGSLRLSCAGSGRTFVRSARGWSSQAPGKARELVARITSRGTSTYYADSVKGRFTSSRDNAKNTDYLLMNSLNPEDNAVYYCNNVRTFRDNSRYDYWGQGTHVTVSS”: “low polyreactivity”.
Consider “QVQLGESGGGLVQAGGSLSLSCAASGFSISWYVMGWYRLAPGKERELVAAISWSGDRTYYADSVKGRFTISRDNAKNTVYLQMNSLKPEDTAVFYCAARRWRKYFSGYNYWGQGTQVTVSS”, for which the “polyreactivity (PSR sort gate)” value was “high polyreactivity”.
With “QVQLGESGGGLVQAGGSLSLSCAASGNTFVSNAMGWYRQATGKERELVATISSGAHTYYADSVKGRFTISRDNAKNTVYLQMKSLKPEDTAVYYCASTSYGYWVGYIPEVDFWGQGTQVSVSS” the entry was “low polyreactivity”; with “QVQLGESGGGLVQSGGSLRLSCAASGSIFDWYDKGWYRQAPGKERELVATITRDGSTNYADSVKGRFTISRDNAKNTVYLQMNSLKPEDTAVYYCAAESRRFWYGLFGNEYGYWGQGTQVTVSS”, “low polyreactivity”; with “QVQLGESGLGLVQAGGSLRLSCAAYGSIFYIYAMGWYRQAPGKERELVAAISRSGGRTYYADSVKGRFTISRDNAKNTVYLQMNSLKPEYTAVYYCAARDHYSNGGMNYWGQGTQVTVSS”, “high polyreactivity”.
The same measure for “QVQLGESRGGLVQAGGSLRLSCAASGTFAYKTIGWYRQAPGKEREWVAAITSSGGSTYYADSVKGRFTISRDNAKNTVYVLMNSLKPEDTAVYYCDKGSTWYYRKYDYWGQGTQVTVSS”: “high polyreactivity”; for “QVQLHESAGGLVQAGGSLRLRCSASGYISCDASRGWYRQAPGKERELAASITKGSSTNYADSVKGRFTIRDNAKNTVYLQMNRLKPEDTAVCYCAVTYPYWGDYTYWGQGTQVTVSS”: “low polyreactivity”; for “QVQLHESGGGLVQAGGSLRLICAASGSISILQSMGWYRQAPGKERELVAGINWGATTYYADRVKGRLTTSRDYAKNTVYLQMNSLKPEATAVYYCAVPTYYTNPLLYWGQGTQVTVSS”: “low polyreactivity”.
With “QVQLIESGGGLDQAGGSLRLSCAASGFIFWEYAMGWYRQAPGKERELVAGISTSGGSTYYADSVKGLFTISRDNAKNTVYLQMNSLKPEDTAVYYCAVEGWDDTYFRQDMDYWGQGTQVTVSS” the entry was “low polyreactivity”; with “QVQLIESGGGLVQAGGSLRLSCAASGIIFYDYAMGWYRPAPGKERELVATITSGGSTNYADSVKGRFTISRDNAKNTVYLQMNSLKPEDTAVYYCAAGRGLILGGVYGYDYWGQGTQVTVSS”, “low polyreactivity”.
“QVQLIESGGGLVQAGGSLRLSCAASGRTFGRYTMGWYRQAPGKERELVADISGTGGRTYYSDSVKGRFTISRDNAKNTVYLQMNSLKPEDTAVYYCNAVLHRRFDYWGQGTQVTVSS”: the “polyreactivity (PSR sort gate)” value was “high polyreactivity”.
